Here are results for 1 substance from patent US20040235029A1.

This assay has as its target exonuclease V (ExoV) of E. coli, a component of RecBCD holoenzyme (E. coli) (UniProt P08394). In words: cell-based or functional assay.
Chain of UniProt P08394 (P08394 2-1180 limits assumed, chain 1 of 3): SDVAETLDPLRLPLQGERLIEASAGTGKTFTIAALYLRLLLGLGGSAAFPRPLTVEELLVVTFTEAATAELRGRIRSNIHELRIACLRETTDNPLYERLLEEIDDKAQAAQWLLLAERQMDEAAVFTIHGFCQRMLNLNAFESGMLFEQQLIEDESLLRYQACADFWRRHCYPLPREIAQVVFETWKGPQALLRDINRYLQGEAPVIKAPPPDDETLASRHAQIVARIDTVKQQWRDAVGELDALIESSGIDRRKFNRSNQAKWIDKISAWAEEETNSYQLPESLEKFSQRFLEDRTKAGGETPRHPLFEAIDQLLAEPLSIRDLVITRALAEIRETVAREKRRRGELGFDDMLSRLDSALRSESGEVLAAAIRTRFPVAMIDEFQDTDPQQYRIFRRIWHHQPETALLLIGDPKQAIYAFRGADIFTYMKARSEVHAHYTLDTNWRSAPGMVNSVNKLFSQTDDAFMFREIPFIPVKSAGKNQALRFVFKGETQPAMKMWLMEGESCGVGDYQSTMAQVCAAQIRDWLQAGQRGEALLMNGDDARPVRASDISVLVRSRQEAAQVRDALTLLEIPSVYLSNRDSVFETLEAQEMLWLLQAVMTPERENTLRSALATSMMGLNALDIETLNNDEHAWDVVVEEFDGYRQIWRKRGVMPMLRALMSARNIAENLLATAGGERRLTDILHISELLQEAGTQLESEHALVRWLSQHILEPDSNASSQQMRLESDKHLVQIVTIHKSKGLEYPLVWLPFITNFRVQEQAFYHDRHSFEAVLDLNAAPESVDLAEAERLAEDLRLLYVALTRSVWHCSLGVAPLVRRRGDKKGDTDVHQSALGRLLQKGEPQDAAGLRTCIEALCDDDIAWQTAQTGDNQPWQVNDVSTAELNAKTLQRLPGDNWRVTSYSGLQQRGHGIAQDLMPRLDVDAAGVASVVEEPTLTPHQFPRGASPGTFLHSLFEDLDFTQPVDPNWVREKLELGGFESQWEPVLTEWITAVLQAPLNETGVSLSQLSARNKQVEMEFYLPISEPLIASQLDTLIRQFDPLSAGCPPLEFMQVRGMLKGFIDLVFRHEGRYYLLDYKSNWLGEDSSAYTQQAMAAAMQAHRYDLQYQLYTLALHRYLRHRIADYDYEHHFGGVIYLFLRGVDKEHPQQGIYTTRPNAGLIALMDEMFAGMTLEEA
Chain of UniProt P08394 (P07648 whole entry, chain 2 of 3, further chain): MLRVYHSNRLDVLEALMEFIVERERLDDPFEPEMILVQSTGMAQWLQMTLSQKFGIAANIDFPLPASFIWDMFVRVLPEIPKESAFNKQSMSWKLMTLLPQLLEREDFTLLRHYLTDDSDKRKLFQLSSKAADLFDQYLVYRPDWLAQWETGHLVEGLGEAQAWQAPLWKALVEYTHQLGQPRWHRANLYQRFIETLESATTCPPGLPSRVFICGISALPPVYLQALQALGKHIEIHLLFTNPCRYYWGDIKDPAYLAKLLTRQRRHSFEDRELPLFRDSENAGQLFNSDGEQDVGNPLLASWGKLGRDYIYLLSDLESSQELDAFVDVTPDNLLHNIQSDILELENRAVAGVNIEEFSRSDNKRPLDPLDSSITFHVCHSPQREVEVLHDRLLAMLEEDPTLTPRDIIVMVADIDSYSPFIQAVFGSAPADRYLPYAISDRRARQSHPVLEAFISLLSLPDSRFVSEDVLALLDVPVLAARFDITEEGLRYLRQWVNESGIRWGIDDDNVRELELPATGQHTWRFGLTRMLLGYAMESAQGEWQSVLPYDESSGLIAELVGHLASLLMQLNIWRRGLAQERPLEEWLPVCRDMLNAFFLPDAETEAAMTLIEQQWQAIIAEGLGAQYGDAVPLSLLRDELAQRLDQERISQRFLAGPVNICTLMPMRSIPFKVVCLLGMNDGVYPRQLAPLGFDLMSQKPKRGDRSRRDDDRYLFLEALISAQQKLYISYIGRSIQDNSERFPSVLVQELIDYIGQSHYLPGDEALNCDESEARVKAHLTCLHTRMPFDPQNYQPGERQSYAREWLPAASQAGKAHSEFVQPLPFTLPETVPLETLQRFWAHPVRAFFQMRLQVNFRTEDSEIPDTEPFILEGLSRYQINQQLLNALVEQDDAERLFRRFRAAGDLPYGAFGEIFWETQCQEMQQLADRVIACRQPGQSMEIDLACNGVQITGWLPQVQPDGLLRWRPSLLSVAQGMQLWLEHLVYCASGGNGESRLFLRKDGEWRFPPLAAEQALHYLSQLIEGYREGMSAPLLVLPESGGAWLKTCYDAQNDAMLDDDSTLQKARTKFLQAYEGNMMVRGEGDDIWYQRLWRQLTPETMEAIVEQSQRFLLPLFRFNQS
Chain of UniProt P08394 (P04993 whole entry, chain 3 of 3, further chain): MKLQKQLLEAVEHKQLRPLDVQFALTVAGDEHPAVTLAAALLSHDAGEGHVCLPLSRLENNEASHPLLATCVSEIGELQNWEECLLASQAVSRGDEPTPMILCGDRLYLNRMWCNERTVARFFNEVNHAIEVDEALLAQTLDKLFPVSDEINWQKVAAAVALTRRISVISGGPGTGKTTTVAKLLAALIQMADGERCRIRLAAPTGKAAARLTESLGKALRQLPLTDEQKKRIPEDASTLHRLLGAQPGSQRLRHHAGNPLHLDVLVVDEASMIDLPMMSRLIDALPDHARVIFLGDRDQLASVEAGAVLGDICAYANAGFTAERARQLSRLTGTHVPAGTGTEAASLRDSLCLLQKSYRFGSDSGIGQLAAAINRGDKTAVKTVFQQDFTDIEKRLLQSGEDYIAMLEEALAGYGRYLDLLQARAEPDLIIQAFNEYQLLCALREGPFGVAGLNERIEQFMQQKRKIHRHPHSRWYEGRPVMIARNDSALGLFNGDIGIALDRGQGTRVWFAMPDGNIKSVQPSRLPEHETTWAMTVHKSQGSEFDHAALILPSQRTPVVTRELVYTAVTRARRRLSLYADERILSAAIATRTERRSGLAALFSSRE

On to “GamS protein of bacteriophage lambda with C-terminal 6His tag (from UniProt P03702 41-138)”, for which the GFP expression from linear template in batch IVT with co-expressed GamS plasmid template (Coomassie staining of gel) was over 2 fold; the GFP expression from linear template in batch IVT with crude GamS (PAGE, Coomassie), against control reaction without GamS came to 2 fold; the GFP protein synthesis from a linear template in batch mode IVT (Coomassie staining of gel), against control reactions lacking GamS came to 3 fold.
